Test [1] concerns the target Alexa647-labeled Bax (single cysteine mutant 126C) (human (H. sapiens)) (UniProt Q07812).
Test [2] deals with Alexa568-labeled BimL-dCTS (mouse (M. musculus)). The test can be described thus: FRET or BRET; with mouse liver mitochondria present; 4 nM Alexa568-labeled BimL or BimL-dCTS with increasing Alexa647-labeled Bax; fit in the sheet: Kd fitting advanced (donor fixed at 4). On the technique in general: In BRET a luciferase serves as donor, and the signal depends on an acceptor being close.

The target of test [3] is Alexa568-labeled BimL-4E (mouse (M. musculus)). The test can be described thus: FRET or BRET; in solution, no membranes; constant Alexa568-labeled BimL protein (donor; 4 nM by the legend of Figure 3C, 20 nM by that of Figure 6-figure supplement 1) with increasing Alexa647-labeled Bax (acceptor); FRET from the decrease in Alexa568 fluorescence; fit: one site, specific binding with Hill slope.
Chain of Alexa568-labeled BimL-4E (mouse (M. musculus)) (main, as listed by the source): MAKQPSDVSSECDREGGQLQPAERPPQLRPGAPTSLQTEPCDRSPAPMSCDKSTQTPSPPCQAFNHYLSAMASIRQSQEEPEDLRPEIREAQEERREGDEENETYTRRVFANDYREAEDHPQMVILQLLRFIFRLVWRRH

The target of test [4] is Alexa568-labeled BimL (single-cysteine mutant BimL Q41C) (mouse (M. musculus)). The test can be described thus: FRET or BRET; in solution, no membranes; 20 nM Alexa568-labeled BimL protein (donor) with increasing Alexa647-labeled Bcl-XL (acceptor); fit: one site, specific binding with Hill slope (BimL-dCTS: another model with a constant fixed at 4).
Test [5] addresses Alexa568-labeled BimL-4E (mouse (M. musculus)). The test is described as above.
Test [6] has as its target Alexa568-labeled BimL-CTS2A (mouse (M. musculus)). Described as above.
The target of test [7] is Alexa568-labeled BimL-I125E (mouse (M. musculus)). Described as above.
The target of test [8] is Alexa568-labeled BimL-I132E (mouse (M. musculus)). The test is described as above.
Test [9] concerns the target Alexa568-labeled BimL-L129E (mouse (M. musculus)). Described as above.
The target of test [10] is Alexa568-labeled BimL-V124E (mouse (M. musculus)). The test is described as above.
The target of test [11] is Alexa568-labeled BimL-dCTS (mouse (M. musculus)). The description is as above.
Test [12] addresses BimL-I125E (Alexa568-labeled, recombinant) (murine). Nature of the test: FRET or BRET; values of Figure 6B (Alexa568-labeled BimL mutant, Alexa647-labeled Bcl-XL); the sentence does not say whether in solution or with liposomes.
Test [13] has as its target BimL-dCTS (Alexa568-labeled, recombinant) (murine). The test can be described thus: FRET or BRET; with mitochondrial-like liposomes present; constant Alexa568-labeled BimL protein (4 or 20 nM), Alexa647-labeled Bax or Bcl-XL titrated; apparent Kd.
For test [14] the target is unchanged. The test can be described thus: FRET or BRET; with mouse liver mitochondria present (Bak-/-; 0.2 mg/mL in Figure 7—figure supplement 1B); 4 nM Alexa568-labeled BimL protein, Alexa647-labeled Bax or Bcl-XL titrated; apparent Kd.
Test [15] has the same target. The test can be described thus: FRET or BRET; in solution, no membranes; constant Alexa568-labeled BimL protein (donor; 4, 10 or 20 nM), Alexa647-labeled Bax or Bcl-XL (acceptor) titrated; FRET from the decrease in Alexa568 fluorescence; Tecan infinite M1000.
Test [16] has as its target Bax (single cysteine 126C, Alexa647-labeled, recombinant) (H. sapiens) (UniProt Q07812).
Test [17] has the same target. This is another data set of the same source.

Where only a bound is given, the exact number is not on record here.

Chain of Bax (single cysteine 126C, Alexa647-labeled, recombinant) (H. sapiens) (Q07812 whole entry C62A): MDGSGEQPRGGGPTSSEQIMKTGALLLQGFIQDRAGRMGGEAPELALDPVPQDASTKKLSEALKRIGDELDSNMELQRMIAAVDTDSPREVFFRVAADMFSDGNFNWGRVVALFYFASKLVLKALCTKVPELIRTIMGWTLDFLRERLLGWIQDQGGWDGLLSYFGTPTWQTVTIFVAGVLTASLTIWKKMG
Chain of Alexa647-labeled Bax (single cysteine mutant 126C) (human (H. sapiens)) (Q07812 other isoform, or with tags, fused parts or gaps mutant): as the sequence (Q07812 whole entry C62A) above

With “Alexa568-labeled BimL (single-cysteine mutant BimL Q41C) (natural protein)”, in [1], the EC50 of Bax (100 nM) activation by BimL: ANTS/DPX release from liposomes is 0.549 nM.
In test [1], “Alexa568-labeled BimL-I125E (natural protein)” yielded an EC50 of Bax (100 nM) activation by BimL-I125E: ANTS/DPX release from liposomes of 105 nM.
In [1], “Alexa568-labeled BimL-I132E (natural protein)” displayed an EC50 of Bax (100 nM) activation by BimL-I132E: ANTS/DPX release from liposomes of 2800 nM.
On to “Alexa568-labeled BimL-L129E (natural protein)”, for which the EC50 of Bax (100 nM) activation by BimL-L129E: ANTS/DPX release from liposomes in [1] is 2170 nM.
In test [1], “Alexa568-labeled BimL-V124E (natural protein)” registered an EC50 of Bax (100 nM) activation by BimL-V124E: ANTS/DPX release from liposomes of 1.21 nM.
Regarding “Alexa568-labeled BimL-dCTS (domain or fragment)”, the EC50 of Bax (100 nM) activation by BimL-dCTS: ANTS/DPX release from liposomes in [1] is 489000 nM.
For “Alexa647-labeled Bax (single cysteine mutant 126C) (from UniProt Q07812 1-192) (natural protein)”, the Kd in [2] was determined as 5.75 nM; in test [3], 74900 nM.
As for “Alexa647-labeled Bcl-XL (single cysteine mutant 152C) (from UniProt Q07817-1 1-233) (natural protein)”, the Kd in [4] was found to be 8.28 nM; in test [5], 70600 nM; in [6], 10.9 nM; in test [7], 8.06 nM; in test [8] it was 9.75 nM; in [9], 9.07 nM. For the same substance, the Kd stood at 11.3 nM in test [10] and 17.2 nM in test [11].
Turning to “Bcl-XL (single cysteine 152C, Alexa647-labeled, recombinant) (from UniProt Q07817-1 1-233) (natural protein)”, the Kd is less than 3 nM in [12], 35 nM in test [13], 35 nM in test [14] and less than 16 nM in test [15].
In the case of “BimL (single cysteine Q41C, Alexa568-labeled, recombinant) (natural protein)”, in test [16], the ANTS/DPX release after adding increasing Bax to isolated liposomes carrying ~5 nM membrane-bound BimL was determined as 60%. The EC50 of Bax-mediated permeabilisation of ANTS/DPX liposomes (100 nM Bax) in [17] turned out to be 1 nM.
Take “BimL-I125E (Alexa568-labeled, recombinant) (natural protein)”: the EC50 of Bax-mediated permeabilisation of ANTS/DPX liposomes (100 nM Bax) in test [17] worked out at 100 nM.

The values above are taken from PMC6980855.
